In this assay the target is T1, cynomolgus monkey FcγRIIa1 extracellular domain, C-terminal His-tag (cynomolgus monkey).
T1 construct: also called cyno FcγRIIa1; cynoFcgRIIa1; not shown: His-tag added to C-terminus
T1 chain: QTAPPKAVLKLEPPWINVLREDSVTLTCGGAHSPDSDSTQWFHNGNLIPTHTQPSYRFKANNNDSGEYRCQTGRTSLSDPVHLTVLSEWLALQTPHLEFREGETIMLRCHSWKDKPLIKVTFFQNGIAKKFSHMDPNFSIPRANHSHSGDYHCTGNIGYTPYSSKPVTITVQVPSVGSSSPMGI
Description: SPR (BIACORE), antibody captured, FcγR analyte. The procedure:
The kinetic analysis of interactions between these antibodies and FcγR was carried out using BIACORE® T200 or BIACORE® 4000 (GE Healthcare). HBS-EP+ (GE Healthcare) was used as the running buffer, and the measurement temperature was set to 25° C. A chip produced by immobilizing Protein A. Protein A/G or mouse anti-human IgG kappa light chain (BD Biosciences) onto a Series S Sensor Chip CM4 or CM5 (GE Healthcare) by the amine-coupling method was used. […] After the measurement, the antibody captured on the chip was washed off by allowing reaction with 10 mM glycine-HCl, pH1.5 and 25 mM NaOH so that the chip was regenerated and used repeatedly. The sensorgrams obtained as measurement results were analyzed by the 1:1 Langmuir binding model using the BIACORE® Evaluation Software to calculate the binding rate constant ka (L/mol/s) and dissociation rate constant kd (l/s), and the dissociation constant KD (mol/L) was calculated from these values. […] Regarding such interactions, KD values were calculated using the following 1:1 binding model described in BIACORE® T100 Software Handbook BR1006-48 Edition AE.
The behavior of interacting molecules according to the 1:1 binding model on BIACORE® can be described by Equation 1: Req=C·R max/(KD+C)+RI, wherein, Req is a plot of steady-state binding levels to analyte concentration. C is concentration, RI is bulk refractive index contribution in the sample, and Rmax is analyte binding capacity of the surface. When this equation is rearranged, KD can be expressed as Equation 2: KD=C·Rmax/(Req−RI)−C. KD can be calculated by substituting the values of Rmax, RI, and C into Equation 1 or Equation 2. From the current measurement conditions, RI=0, C=2 μmol/L can be used.
(Surface plasmon resonance follows binding to a sensor surface in real time, without labels.)

B1: M103205H795-MY335 / M103202L889-SK1 (antibody, human IgG1, kappa)
heavy: QVTLKESGPVLVKPTETLTLTCTVSGIDLSHDDISWVRQAPGKGLEWVGIISYAGSTYYASWAKGRLTISKDTSKNQVVLTMTNMDPVDTATYYCARGVPAYSHGGDLWGQGTLVTVSSASTKGPSVFPLAPSSKSTSGGTAALGCLVKDYFPEPVTVSWNSGALTSGVHTFPAVLQSSGLYSLSSVVTVPSSSLGTQTYICNVNHKPSNTKVDKKVEPKSCDKTHTCPPCPAPELLTGPSVFLFPPKPKDTLMISRTPEVTCVVVDVSDEDPEVKFNWYVDGVEVHNAKTKPREEQYNSTYRVVSVLTVLHRDWLNGKEYKCKVSNKALPKPIEKTISKAKGQPREPQVYTLPPSREEMTKNQVSLTCLVKGFYPSDIAVEWESNGQPENNYKTTPPVLDSDGSFFLYSKLTVKKSRWQQGNVFSCSVMHEALHNHYTQKSLSLSP
light: DIVMTQSPATLSLSPGERATLSCTSSQSVYHANWLSWFQQKPGQPPKLLIYWASTLAYGVPSRFSGSGSGTDFTLTISSLQPEDAATYYCAGGYGGGRYAFGQGTKVEIKRTVAAPSVFIFPPSDEQLKSGTASVVCLLNNFYPREAKVQWKVDNALQSGNSQESVTEQDSKDSTYSLSSTLTLSKADYEKHKVYACEVTHQGLSSPVTKSFNRGEC
notes: CH with G236T/H268D/Q311R/A330K/D413K against SG1 (EU numbering); also called MS1032LO06-MY335
By Kd is commonly meant the equilibrium constant for the complex coming apart. For B1, the Kd is 2000 nM.

B2: M103205H795-MY344 / M103202L889-SK1 (antibody, human IgG1, kappa)
heavy: QVTLKESGPVLVKPTETLTLTCTVSGIDLSHDDISWVRQAPGKGLEWVGIISYAGSTYYASWAKGRLTISKDTSKNQVVLTMTNMDPVDTATYYCARGVPAYSHGGDLWGQGTLVTVSSASTKGPSVFPLAPSSKSTSGGTAALGCLVKDYFPEPVTVSWNSGALTSGVHTFPAVLQSSGLYSLSSVVTVPSSSLGTQTYICNVNHKPSNTKVDKKVEPKSCDKTHTCPPCPAPELLNGPSVFLFPPKPKDTLMISRTPEVTCVVVDVSDEDPEVKFNWYVDGVEVHNAKTKPREELYNSTYRVVSVLTVLHRDWLNGKEYKCKVSNKALPKPIEKTISKAKGQPREPQVYTLPPSREEMTKNQVSLTCLVKGFYPSDIAVEWESNGQPENNYKTTPPVLDSDGSFFLYSKLTVKKSRWQQGNVFSCSVMHEALHNHYTQKSLSLSP
light: DIVMTQSPATLSLSPGERATLSCTSSQSVYHANWLSWFQQKPGQPPKLLIYWASTLAYGVPSRFSGSGSGTDFTLTISSLQPEDAATYYCAGGYGGGRYAFGQGTKVEIKRTVAAPSVFIFPPSDEQLKSGTASVVCLLNNFYPREAKVQWKVDNALQSGNSQESVTEQDSKDSTYSLSSTLTLSKADYEKHKVYACEVTHQGLSSPVTKSFNRGEC
notes: CH with G236N/H268D/Q295L/Q311R/A330K/D413K against SG1 (EU numbering); also called MS1032LO06-MY344
B2: the Kd came out at 890 nM.

B3: M103205H795-PK2 / M103202L889-SK1 (antibody, human IgG1, kappa)
heavy: QVTLKESGPVLVKPTETLTLTCTVSGIDLSHDDISWVRQAPGKGLEWVGIISYAGSTYYASWAKGRLTISKDTSKNQVVLTMTNMDPVDTATYYCARGVPAYSHGGDLWGQGTLVTVSSASTKGPSVFPLAPSSKSTSGGTAALGCLVKDYFPEPVTVSWNSGALTSGVHTFPAVLQSSGLYSLSSVVTVPSSSLGTQTYICNVNHKPSNTKVDKKVEPKSCDKTHTCPPCPAPELLNGPSVFLFPPKPKDTLMISRTPEVTCVVVDVSEEDPEVKFNWYVDGVEVHNAKTKPREEQYNSTYRVVSVLTVLHQDWLNGKEYKCKVSNKALPKPIEKTISKAKGQPREPQVYTLPPSREEMTKNQVSLTCLVKGFYPSDIAVEWESNGQPENNYKTTPMVLDRDGSFFLYSKLTVKKSRWQQGNVFSCSVMHEALHNHYTQKSLSLSP
light: DIVMTQSPATLSLSPGERATLSCTSSQSVYHANWLSWFQQKPGQPPKLLIYWASTLAYGVPSRFSGSGSGTDFTLTISSLQPEDAATYYCAGGYGGGRYAFGQGTKVEIKRTVAAPSVFIFPPSDEQLKSGTASVVCLLNNFYPREAKVQWKVDNALQSGNSQESVTEQDSKDSTYSLSSTLTLSKADYEKHKVYACEVTHQGLSSPVTKSFNRGEC
notes: CH with G236N/H268E/A330K/P396M/S400R/D413K against SG1 (EU numbering); also called MS1032LO06-PK2; MS103205H795-PK2
For B3, binding was put at a Kd of 1300 nM.

B4: M103205H795-MY351 / M103202L889-SK1 (antibody, human IgG1, kappa)
heavy: QVTLKESGPVLVKPTETLTLTCTVSGIDLSHDDISWVRQAPGKGLEWVGIISYAGSTYYASWAKGRLTISKDTSKNQVVLTMTNMDPVDTATYYCARGVPAYSHGGDLWGQGTLVTVSSASTKGPSVFPLAPSSKSTSGGTAALGCLVKDYFPEPVTVSWNSGALTSGVHTFPAVLQSSGLYSLSSVVTVPSSSLGTQTYICNVNHKPSNTKVDKKVEPKSCDKTHTCPPCPAPELLNGPSVFLFPPKPKDTLMISRTPEVTCVVVDVSDEDPEVKFNWYVDGVEVHNAKTKPREEQYNSTYRVVSVLTVLHRDWLNGKEYKCKVSNKALPKPIEKTISKAKGQPREPQVYTLPPSREEMTKNQVSLTCLVKGFYPSDIAVEWESNGQPENNYKTTPPVLDSDGSFFLYSKLTVKKSRWQQGNVFSCSVMHEALHNHYTQKSLSLSP
light: DIVMTQSPATLSLSPGERATLSCTSSQSVYHANWLSWFQQKPGQPPKLLIYWASTLAYGVPSRFSGSGSGTDFTLTISSLQPEDAATYYCAGGYGGGRYAFGQGTKVEIKRTVAAPSVFIFPPSDEQLKSGTASVVCLLNNFYPREAKVQWKVDNALQSGNSQESVTEQDSKDSTYSLSSTLTLSKADYEKHKVYACEVTHQGLSSPVTKSFNRGEC
notes: CH with G236N/H268D/Q311R/A330K/D413K against SG1 (EU numbering); also called MS1032LO06-MY351
B4 came in with a Kd of 920 nM.

The values above are taken from US20200317768A1 (published 2020).
